# The DeepSol protein solubility set
# Assay: soluble on expression in E. coli; label from the status in PepcDB or PDB records
row,Sequence,soluble on expression in E. coli
1,MDNEKGLLIVLSGPSGVGKGTVRKRIFEDPSTSYKYSISMTTRQMREGEVDGVDYFFKTRDAFEALIKDDQFIEYAEYVGNYYGTPVQYVKDTMDEGHDVFLEIEVEGAKQVRKKFPDALFIFLAPPSLEHLRERLVGRGTESDEKIQSRINEARKEVEMMNLYDYVVVNDEVELAKNRIQCIVEAEHLKRERVEAKYRKMILEAKK,soluble
2,GPLGSAAAATPAVRTVPQYKYAAGVRNPQQHLNAQPQVTMQQPAVHVQGQEPLTASMLASAPPQEQKQMLGERLFPLIQAMHPTLAGKITGMLLEIDNSELLHMLESPESLRSKVDEAVAVLQAHQAKEAAQKAVNSATGVPTV,soluble
3,MDILSDIANAVLPQDVVSKVESKRAVAVLRGTAVFGTVWLTQKAEGEETEFEGEIKGLSPGLHGFHIHQYGDSTDGCTSAGPHFNPCKMNHGGRDSVVRHVGDLGNVEAGADGVAKIKFSDKVVSLFGANTVIGRSMVVHVDRDDLGQGIDDKAEESLKTGNAGARAACGVIALAAPA,not soluble
4,MIQMSSNDSSEVIRQCLQVLESITSDSSVPRNIRRSVNEIMDILNNESEPLFLRAASSISILEDISNDPNLPLHTRTLIWNLSSQLETIPVDE,not soluble
5,MAGAMIEARGLVKRFVSGRIRRRVVEALKGVSFSVYEGEIYSFLGPNGAGKTTTVRILSTLLDPDGGEARVAGFDVVKERWEVRKRIGVMLSVERGFYWKLTGRENLYYFGRIYGIPQGELKSRIKEVLDLVGLTDLGGADKPFEEMSLGMKARLGLARVLLKDPEVLILDEPTLGLDPASARTIRGVIRSLASEGRTIFITTHNMVEAEMISDRVGIIIGGRIAMEGTPDELKRRVFSSINLEFRVKASGHAAKKFFYDVKGEYGNRIVGGVTFSDGILTFRVSVNRDEPAEPIIDRITRLAYQYRFKILEIKALEPSLEDVFVAVSESGEARSGRVKGSIAQRLEHHHHHH,soluble
6,MSLELKVSLDNITMTAYIKSKKYLAMKQLIETHLAITVQTAMTDMFRATTGDGIHVVLHMNYDKQKGQDRKARPFRLEFNPNKLRLVDSEIIDTIIPFLEDISISRADLAFDLFEVDCSEFVLEKKGRPTATKEFRSSTGTLETKYLGAPRSEKQVRLYNKKKEQLQNGTDKDKDFASQFKHWWRLEFQLRSRSIDEIFEVIDTIIFKPFNLKGLSIETQIYLTALIHDKNIWKKLHRNTRARYKKILETHQTSDTDYLGLLKDLLKHERPRLENQLAYYGGRIDKNSFQPFCEGHHHHHH,soluble
7,MSEFSQTALFPSLPRTARGTAVVLGNTPAGDKIQYCNGTSVYTVPVGSLTDTEIYTEHSHQTTVAKTSPSGYYCASGDVHGNVRIWDTTQTTHILKTTIPVFSGPVKDISWDSESKRIAAVGEGRERFGHVFLFDTGTSNGNLTGQARAMNSVDFKPSRPFRIISGSDDNTVAIFEGPPFKFKSTFGEHTKFVHSVRYNPDGSLFASTGGDGTIVLYNGVDGTKTGVFEDDSLKNVAHSGSVFGLTWSPDGTKIASASADKTIKIWNVATLKVEKTIPVGTRIEDQQLGIIWTKQALVSISANGFINFVNPELGSIDQVRYGHNKAITALSSSADGKTLFSADAEGHINSWDISTGISNRVFPDVHATMITGIKTTSKGDLFTVSWDDHLKVVPAGGSGVDSSKAVANKLSSQPLGLAVSADGDIAVAACYKHIAIYSHGKLTEVPISYNSSCVALSNDKQFVAVGGQDSKVHVYKLSGASVSEVKTIVHPAEITSVAFSNNGAFLVATDQSRKVIPYSVANNFELAHTNSWTFHTAKVACVSWSPDNVRLATGSLDNSVIVWNMNKPSDHPIIIKGAHAMSSVNSVIWLNETTIVSAGQDSNIKFWNVPF,soluble
8,MNLFQNLALKYSHTMMEKSLQKGFNVELLKQPEEKIPKQDKSYMLYAHVPFCHTFCPYCSFHKYYYDENLAKVYFQNLREEIKIMKNKGFDFTSMYVGGGTTLIDEEELLKTLELCKKLFNIKEISCESDPNHIDPNKLSMFKGIIDRLSCGIQSFDDETLKKVARYNKFGSSKELQEKISKALGILPIFSIDLIFNLPGQNEKQLLNDLEIAKNLAPQQITTYPLMKSNLTKDNIAKSLGVSIKDNEFTYYQIIREFFKDYTQNNGWSFSLEKNKLNDEYVSSHHEYLGVGSGAFSFLDGELLINAFNLNDYAKFIQEKQNANIAKACFDKKEIIKYVFLTGIFSGKIEIDKFNKTLNCNLEKELFIELLGLKTSGAIIKDQNALIATEFGQYLFVVLMKDFYTGMDLVRAVFRDDKRLKNKDYIDIMKENIDPLNSASMEFKAETN,not soluble
9,SLVGTPNLLTLDEADATWTLIKDKVIEEHFGPNAVAVPFLSDAACYDLLGVLVKQSRPAHTRLALPGRQGRRALKPVGPLPSLLEQAGSEGAFAHCTREYSPNGRAERAYEETRMLDGQPCKIRLHMGDLRKKVAFLLLPPGQVSLQQTLPWLRSTHSIYVIYQVFSCSWLQLGLTSTAREPQLLRLLRSLPVAFSCLKFSLQSKGVLGPQKPLTKDPLPHGANWVRPNLSIMPPLAPTSASADTTEAADVPPPVPAPPTPPPQEGPEDKPTRFSYKGRNPFWRGPQILSENWLFSPRSPPPGAQGGGPRDPDGHSMSLPLLQGLSSEFDSDD,not soluble
10,AARPRKNNVSVPNLYPLYSRKVNKVYWRYKHPVTGKFHALGTNEAEAIAIATEANTRLAEQRTRQILAISDRIATSKGKAITTSTWLDRYQAIQDDRLKSGDIRLNTYKQKAKPVSLLRERAGMKLISAVDVRDIAQLLDEYIAAGRPRMAQVVRSVLIDVFKEAQHYGEVPPGYNPALATKQPRRKITRQRLSLEEWKKIFDIADATHRYMGNAMLLALVTGQRLGDISRMKFSDIWDDHLHVIQEKTGSKIAIPLSLRLNAINWSLRDVVARCRDYAVSAYLVHFFRSTSQAERGAQVKANTLTMNFSKARDLARIDWGEGSPATFHEQRSLSERLYKEQGLDTQKLLGHKTQQQTDRYHDDRGKGWSKVAL,not soluble
11,MALHHHHHHGVTGELRRRADGIWQRILAHPFVAELYAGTLPMEKFKYYLLQDYNYLVNFAKALSLAASRAPSVDLMKTALELAYGTVTGEMANYEALLKEVGLSLRDAAEAEPNRVNVSYMAYLKSTCALEGFYQCMAALLPCFWSYAEIAERHGGKLRENPVHVYKKWASVYLSPEYRGLVERLRAVLDSSGLSAEELWPYFKEASLYELEFWQAAYEGH,soluble
12,MMYIDNEVLEKMIMTMVEGFNRLEKKLDRMNRLKDCLDGDTLLDNCDLAQLLGVTQRTIARYREKGLIRYYQTDENGKNFYRSSEIQDFLRHRGKKK,not soluble
13,MGCRATQRESVGFADKIRYTERRFISVFGVPLLIQLICQAPQRAQELEQIAARWQLQASDDSPFALVLSEERLELRKLDEPKLGAIYVDWVEGAVAHRRKFGGGKGQSIAKAAGLNKGVTPVVLDATAGLGRDAFVLASLGCRVQMVERHPVVAALLEDGLQRAKQDDEIGAWVSERISLLHASSHDALQQLASDPNFTSPDVVYLDPMYPHPENKKKTALVKKEMRVFQSLVGADNDADALLEPALQLAQKRVVVKRPDYAPWLGNRKPSMAMETKKNRFDVYVIAAMSGE,soluble
14,METETATTPTGNTEPTAAASAEPPKSDKVTVRLRNIADAPVLKNKKMVVNPTDTVASFILKLRKLLNIQANNSLFLYIDNTFAPSPDTTFETLSRCYSVKITDKEILELQYSITPAYG,soluble
15,SLPHPAPGPADAEDPRLAEVMAAVRSSRRYQSVAPETVRRLAANALVASRGDLAEAVKRTKRSLHEVFGAYLPSPPKYDALLRQLRDAVDAGDDEAVRAVLHRAMSTHASTRERLPILEEFYREVFARLDAPTSVRDLACGMNPLAAPWMPGSDAFTYHASDIDTRLTEFLAAALETLGVAHDVRVRDLMTGVGEVATDVTLLLKTLPCIEAQGRGQGWDLIDAIRSPVVVVSFPTKSLGQRSKGMFNTYSANFGAWLENRPHDVEQVEFRNELVYFVRKNA,soluble
16,MTLPDSKKDQTARHVAILQESYRHYTGRYLFDPKLGASEAIVWLEQAPFALVSHGTQPDPIFNYGNQTALQLFGMTWDEFTRMPSRLSAEPVDRAERTRLLDHVSRDGYIDDYTGVRIAADGRRFLIRHATVWNLLDESGRFYGQAAMIPEWEVLQPVFTAD,not soluble
17,MSLSPPGVRLFYDPRGHHAGAINELCWGLEEQGVPCQTITYDGGGDAAALGALAARSSPLRVGIGLSASGEIALTHAQLPADAPLATGHVTDSDDQLRTLGANAGQLVKVLPLSERN,soluble
